Data taken from patent US20180326085A1 (Merck KGaA, published 2018).
Positions count from the first letter of the chain named.

How the values were obtained:
EGFR on cells [1] = molecular target: T1, EGFR on cells (human, UniProt P00533); assay: flow cytometry, A431 cells (c-MET+ EGFR+++)
T1 construct: endogenous receptor on the cell surface; for A549 cells m5 is used; also called on NCI-H441, EBC-1, A431, MKN-45, HepG2 or T47D cells (cell line under assay)

c-MET on cells [2] = molecular target: T2, c-MET on cells (human, UniProt P08581); assay: flow cytometry, SK-MEL2 cells (c-MET+ EGFR-)
T2 construct: endogenous receptor on the cell surface; for A549 cells m4 is used; also called HGFR; on NCI-H441, EBC-1, A431, MKN-45, SK-MEL2 or HepG2 cells (cell line under assay)

EGFR on cells [3] = molecular target: T1, EGFR on cells; assay: flow cytometry, HepG2 cells (c-MET+ EGFR+)
[4] = molecular target: T3, EGFR (epidermal growth factor receptor) on A549 cells (human, UniProt P00533 25-1210); assay: flow cytometry, A549 cells (c-MET+ EGFR++)
T3 construct: whole, on cells; Endogenous receptor of A549 cells; phosphorylation read out in cell lysates

EGFR on cells [5] = molecular target: T1, EGFR on cells; assay: flow cytometry, MKN-45 cells (c-MET+++ EGFR++)
EGFR on cells [6] = molecular target: T1, EGFR on cells; assay: flow cytometry, EBC-1 cells (c-MET+++ EGFR++)
[7] = molecular target: T4, EGFR (soluble extracellular domain) (human, UniProt P00533); assay: BLI (Octet), antibody on anti-human Fc biosensors, soluble EGFR ECD as analyte
T4 construct: soluble extracellular domain; also called Human EGFR extracellular domain, R&D Systems 1095-ER

EGFR on cells [8] = molecular target: T1, EGFR on cells; assay: flow cytometry on NCI-H441 cells (express c-MET and EGFR), FITC anti-human Fc, n=3
[9] = molecular target: T5, c-MET and EGFR co-expressed on cells (human, UniProt P08581;P00533); assay: flow cytometry, A431 cells (c-MET+ EGFR+++)
T5 construct: endogenous receptor on the cell surface; not a complex: two separate receptors on the same cell; used as target only for bispecific c-MET x EGFR molecules, whose cell staining cannot be split between the two arms; also called cells that carry both receptors: NCI-H441, EBC-1, A431, MKN-45, A549, HepG2 (cell line under assay)

[10] = molecular target: T5, c-MET and EGFR co-expressed on cells; assay: flow cytometry, HepG2 cells (c-MET+ EGFR+)
EGFR on cells [11] = molecular target: T1, EGFR on cells; assay: flow cytometry at 300 nM on mixed EBC-1 and T47D (low EGFR, no c-MET) cells, anti-human Fc detection; T47D population
[12] = molecular target: T5, c-MET and EGFR co-expressed on cells; assay: flow cytometry, A549 cells (c-MET+ EGFR++)
[13] = molecular target: T5, c-MET and EGFR co-expressed on cells; assay: flow cytometry, MKN-45 cells (c-MET+++ EGFR++)
[14] = molecular target: T5, c-MET and EGFR co-expressed on cells; assay: flow cytometry, EBC-1 cells (c-MET+++ EGFR++)
c-MET on cells [15] = molecular target: T2, c-MET on cells; assay: flow cytometry, A431 cells (c-MET+ EGFR+++)
c-MET on cells [16] = molecular target: T2, c-MET on cells; assay: flow cytometry, HepG2 cells (c-MET+ EGFR+)
[17] = molecular target: T6, c-MET (hepatocyte growth factor receptor) on A549 cells (human, UniProt P08581 25-1390); assay: flow cytometry, A549 cells (c-MET+ EGFR++)
T6 construct: whole, on cells; Endogenous receptor of A549 cells; phosphorylation read out in cell lysates; also called HGFR

c-MET on cells [18] = molecular target: T2, c-MET on cells; assay: flow cytometry, MKN-45 cells (c-MET+++ EGFR++)
c-MET on cells [19] = molecular target: T2, c-MET on cells; assay: flow cytometry, EBC-1 cells (c-MET+++ EGFR++)
c-MET on cells [20] = molecular target: T2, c-MET on cells; assay: flow cytometry on NCI-H441 cells (express c-MET and EGFR), FITC anti-human Fc, n=3
[21] = molecular target: T7, biotinylated recombinant human c-MET ECD (HGFR extracellular domain) (human, UniProt P08581 25-932, biotinylated (sites not given)); assay: HGF competition ELISA: HGF on the plate, biotinylated c-MET ECD pre-incubated with the antibody; blocked ligand HGF
T7 construct: extracellular domain; also called human c-MET ECD-His

[22] = molecular target: T7, biotinylated recombinant human c-MET …; assay: BLI (Octet), antibody on anti-human Fc biosensors, soluble c-MET ECD as analyte

B1: oa 225-H (antibody, V domains shown)
VH: EVQLVQSGAEVKKPGASVKVSCKASGFSLTNYGVHWMRQAPGQGLEWIGVIWSGGNTDYNTPFTSRVTITSDKSTSTAYMELSSLRSEDTAVYYCARALDYYDYEFAYWGQGTLVTVSS
VL: DIQMTQSPSSLSASVGDRVTITCRASQSIGTNIHWYQQKPGKAPKLLIKYASESISGVPSRFSGSGYGTDFTLTISSLQPEDVATYYCQQNNEWPNTFGQGTKVEIK
notes: one-armed (monovalent) anti-EGFR SEED molecule
MFI at 100 nM (EGFR on cells [1]): 2230 | MFI at 100 nM (c-MET on cells [2]): 20 | binding result (c-MET on cells [2]): no binding (tested: 100 nM) | MFI at 100 nM (EGFR on cells [3]): 53 | MFI at 100 nM [4]: 184 | MFI at 100 nM (EGFR on cells [5]): 199 | MFI at 100 nM (EGFR on cells [6]): 287 | Kd [7]: 0.14 nM | koff [7]: 0.00049 s⁻¹ | kon [7]: 3.6e+06 M⁻¹ s⁻¹ | EC50 (read off the curve) (EGFR on cells [8]): ~0.4 nM

B2: B10v5x225-L (bispecific antibody, V domains shown)
VL (c-MET arm): EPVLTQPPSVSVAPGETATIPCGGDSLGSKIVHWYQQRPGQAPLLVVYDDAARPSGIPERFSGSKSGTTATLTISSVEAGDEADYFCQVYDYHSDVEVFGGGTKLTVLGQPKAA
VH (c-MET arm): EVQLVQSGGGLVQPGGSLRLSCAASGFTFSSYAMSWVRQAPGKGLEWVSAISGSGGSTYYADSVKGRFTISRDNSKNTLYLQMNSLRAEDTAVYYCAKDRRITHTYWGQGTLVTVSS
VL (EGFR arm): B1 VL with E93N, N96T
VH (EGFR arm): B1 VH with S53R, D100T
notes: c-MET x EGFR SEED bispecific
MFI at 100 nM [9]: 847 | MFI at 100 nM (c-MET on cells [2]): 341 | MFI at 100 nM [10]: 451 | binding result (EGFR on cells [11]): binds | MFI at 100 nM [12]: 249 | MFI at 100 nM [13]: 1220 | MFI at 100 nM [14]: 2040

B3: oa B10v5 (antibody, V domains shown)
VH: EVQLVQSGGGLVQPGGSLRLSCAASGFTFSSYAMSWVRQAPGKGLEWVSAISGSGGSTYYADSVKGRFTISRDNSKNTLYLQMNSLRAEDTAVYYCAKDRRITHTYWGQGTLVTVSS
VL: EPVLTQPPSVSVAPGETATIPCGGDSLGSKIVHWYQQRPGQAPLLVVYDDAARPSGIPERFSGSKSGTTATLTISSVEAGDEADYFCQVYDYHSDVEVFGGGTKLTVLG
notes: one-armed (monovalent) anti-c-MET SEED molecule; also called one-armed B10v5
MFI at 100 nM (c-MET on cells [15]): 49 | MFI at 100 nM (c-MET on cells [2]): 272 | MFI at 100 nM (c-MET on cells [16]): 399 | MFI at 100 nM [17]: 91 | MFI at 100 nM (c-MET on cells [18]): 1500 | MFI at 100 nM (c-MET on cells [19]): 2310 | EC50 (read off the curve) (c-MET on cells [20]): ~1 nM | IC50 (read off the curve) [21]: ~6 nM | Kd [22]: 0.38 nM | koff [22]: 0.00016 s⁻¹ | kon [22]: 400000 M⁻¹ s⁻¹

B4: oa CS06 (antibody, V domains shown)
VH: QVQLQQSGAEVKKPGSSAKVSCKASGGTFSSNAISWVRQAPGQGLEWMGGIIPIFGTAIYAQKFQGRVTITADESTSTAYMELSSLRSEDTAVYYCARDQRGYYYYYYYGMDVWGQGTTVTVSS
VL: QLVLTQSPSVSVAPGKTARITCGGNNIRNVGVHWYQKKPGQAPILVVYDDDDRPSGVPERFSGSNSGNTATLTISRVEAGDEADYYCQVWDSATDQRVFGGGTKLTVLG
notes: one-armed (monovalent) anti-c-MET SEED molecule; also called one-armed CS06
MFI at 100 nM (c-MET on cells [15]): 37 | MFI at 100 nM (c-MET on cells [2]): 213 | MFI at 100 nM (c-MET on cells [16]): 296 | MFI at 100 nM [17]: 147 | MFI at 100 nM (c-MET on cells [18]): 1490 | MFI at 100 nM (c-MET on cells [19]): 2630 | EC50 (read off the curve) (c-MET on cells [20]): ~0.3 nM | IC50 (read off the curve) [21]: ~8 nM | Kd [22]: 0.19 nM | koff [22]: 0.00021 s⁻¹ | kon [22]: 1.1e+06 M⁻¹ s⁻¹
